Results as given in article PMC9332313, “Folding and Binding Mechanisms of the SH2 Domain from Crkl” (Biomolecules, 2022).
Square brackets hold non-standard residues; d marks the D form. Ends that are not written are not given here. * marks the point of attachment. pY = N[C@@H](Cc1ccc(OP(=O)(O)O)cc1)C(=O)O; Dansyl = CN(C)c1cccc2c(S(=O)(=O)*)cccc12

Experiments:
Conditions in all cases: both partners purified
[1] = target: T1, SH2 domain of Crkl protein (residues 1-111), wild type (UniProt P46109 1-111); assay: stopped-flow fluorescence kinetics (FRET); dansyl-Pax112-123 constant at 2 μM mixed with Crkl-SH2 2 to 10 μM (pseudo-first-order, kon); koff by displacement of the preincubated 2 µM complex with excess non-dansylated Pax112-123 (30 μM); 283 K; 50 mM BisTRIS pH 6.0, 0.5 M NaCl
T1 construct: Crkl adaptor protein, SH2 domain, residues 1-111; Subcloned in pET28b+; all experiments were done on the N-terminally His-tagged protein; also called Crkl-SH2; Crkl SH2 domain; source: E. coli BL21 (DE3), purified (HisTrap nickel column, desalting); not shown: His tag, N-terminal, kept
T1 sequence (P46109 1-111): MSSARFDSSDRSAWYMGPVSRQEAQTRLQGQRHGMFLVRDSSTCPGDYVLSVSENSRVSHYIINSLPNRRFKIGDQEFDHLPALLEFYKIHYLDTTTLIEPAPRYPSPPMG

[2] = target: T2, SH2 domain of Crkl protein (residues 1-111), H33A variant (UniProt P46109 1-111, H33A); assay: as above
T2 construct: Crkl adaptor protein, SH2 domain, residues 1-111, His33 replaced by alanine; Site-directed mutant of m1 (QuikChange); source: E. coli BL21 (DE3), purified (HisTrap nickel column, desalting); not shown: His tag, N-terminal, kept
T2 sequence (P46109 1-111 H33A): as the sequence (P46109 1-111) above, with H33A counted along it

[3] = target: T3, SH2 domain of Crkl protein (residues 1-111), H80A variant (UniProt P46109 1-111, H80A); assay: as above
T3 construct: Crkl adaptor protein, SH2 domain, residues 1-111, His80 replaced by alanine; Site-directed mutant of m1 (QuikChange); source: E. coli BL21 (DE3), purified (HisTrap nickel column, desalting); not shown: His tag, N-terminal, kept
T3 sequence (P46109 1-111 H80A): as the sequence (P46109 1-111) above, with H80A counted along it

[4] = target: T4, SH2 domain of Crkl protein (residues 1-111), H91A variant (UniProt P46109 1-111, H91A); assay: as above
T4 construct: Crkl adaptor protein, SH2 domain, residues 1-111, His91 replaced by alanine; Site-directed mutant of m1 (QuikChange); source: E. coli BL21 (DE3), purified (HisTrap nickel column, desalting); not shown: His tag, N-terminal, kept
T4 sequence (P46109 1-111 H91A): as the sequence (P46109 1-111) above, with H91A counted along it

[5] = target: T1, SH2 domain of Crkl protein (residues …); assay: stopped-flow fluorescence kinetics (FRET); dansyl-Pax112-123 constant at 2 μM mixed with Crkl-SH2 2 to 10 μM (pseudo-first-order, kon); koff by displacement of the preincubated 2 µM complex with excess non-dansylated Pax112-123 (30 μM); 283 K; 50 mM TrisHCl pH 8.0, 0.5 M NaCl
[6] = target: T2, SH2 domain of Crkl protein (residues …); assay: as above
[7] = target: T3, SH2 domain of Crkl protein (residues …); assay: stopped-flow fluorescence kinetics (FRET); dansyl-Pax112-123 constant at 2 μM mixed with Crkl-SH2 2 to 10 μM (pseudo-first-order, kon); koff by displacement of the preincubated 2 µM complex with excess non-dansylated Pax112-123 (30 μM); 283 K; 50 mM TrisHCl pH 8.5, 0.5 M NaCl
[8] = target: T1, SH2 domain of Crkl protein (residues …); assay: stopped-flow fluorescence kinetics (FRET); dansyl-Pax112-123 constant at 2 μM mixed with Crkl-SH2 2 to 10 μM (pseudo-first-order, kon); koff by displacement of the preincubated 2 µM complex with excess non-dansylated Pax112-123 (30 μM); 283 K; 50 mM sodium-acetate pH 5.0, 0.5 M NaCl
[9] = target: T2, SH2 domain of Crkl protein (residues …); assay: as above
[10] = target: T3, SH2 domain of Crkl protein (residues …); assay: as above

Kd [1]: 2.6 ± 0.2 µM | koff [1]: 20.8 ± 0.3 s⁻¹ | kon [1]: 7.9e+06 ± 600000 M⁻¹ s⁻¹ | Kd [2]: 3.3 ± 0.2 µM | koff [2]: 19.5 ± 0.4 s⁻¹ | kon [2]: 5.9e+06 ± 300000 M⁻¹ s⁻¹ | Kd [3]: 3.2 ± 0.1 µM | koff [3]: 19.6 ± 0.3 s⁻¹ | kon [3]: 6.1e+06 ± 300000 M⁻¹ s⁻¹ | Kd [4]: 3 ± 0.1 µM | koff [4]: 20 ± 0.3 s⁻¹ | kon [4]: 6.6e+06 ± 200000 M⁻¹ s⁻¹ | Kd [5]: 3.1 ± 0.2 µM | koff [5]: 41.4 ± 0.9 s⁻¹ | kon [5]: 1.32e+07 ± 700000 M⁻¹ s⁻¹ | Kd [6]: 2 ± 0.3 µM | koff [6]: 29.3 ± 3.4 s⁻¹ | kon [6]: 1.46e+07 ± 1.1e+06 M⁻¹ s⁻¹ | Kd [7]: 3.2 ± 0.5 µM | koff [7]: 32.5 ± 2.7 s⁻¹ | kon [7]: 1.02e+07 ± 1.2e+06 M⁻¹ s⁻¹ | Kd [8]: 9.5 ± 1.7 µM | koff [8]: 49.1 ± 1.7 s⁻¹ | kon [8]: 5.2e+06 ± 900000 M⁻¹ s⁻¹ | Kd [9]: 7.6 ± 0.7 µM | koff [9]: 33.2 ± 1.4 s⁻¹ | kon [9]: 4.4e+06 ± 300000 M⁻¹ s⁻¹ | Kd [10]: 11.5 ± 1.2 µM | koff [10]: 52.7 ± 3.2 s⁻¹ | kon [10]: 4.6e+06 ± 400000 M⁻¹ s⁻¹
B1: dansylated Pax_(112–123) peptide (Dans-GEEEHV-pY-SFPNK) (peptide)
peptide: Dansyl-GEEEHV[pY]SFPNK
notes: The dansyl group is the FRET acceptor of Trp14 of the SH2 domain; source: synthetic peptide, bought: GenScript
